This note sets out measurements from the supplement of paper PMC10567573.

This data set in a line: protein stability index of a GFP-peptide fusion (GPS, HEK-293T) (PSI 1-6); higher = more stable.
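Note: lentivirally expressed fusions sorted by FACS into six bins by GFP to DsRed ratio, PSI derived from sequencing read proportions per bin multiplied by bin number.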

On to KLLSVIVWMLMLLLAVPNIILTNQ, for which the protein stability index (parent: IOH27142_24, c terminus: a fixed tail appended) came out at 3.1.

As to FNYSVGFKDLNESLNALEDQDLDA, where the note is “parent: IOH27581_8, c terminus: a fixed tail appended”, the protein stability index worked out at 4.47.

As for KKIFKSHLKSSRNSTSVKKKSSRN, the protein stability index (parent: IOH27142_36, c terminus: a fixed tail appended) was 3.96.

With FVSIAQSEQESLLQQAQAQFRMAQ, the protein stability index (parent: IOH27102_133, c terminus: a fixed tail appended) amounted to 2.09.

In the case of GHSHHSHHGHPSHQSHSLPNRRH, the protein stability index (parent: IOH27431_35, c terminus: native) was 2.57.

FWNIKQMWDTKTLGLRQHHCRKCG: the protein stability index (parent: IOH27506_50, c terminus: a fixed tail appended) worked out at 2.1.

In the case of RALEEVEMKLQKNFLTQRENTIAG, the protein stability index (parent: IOH27431_29, c terminus: a fixed tail appended) worked out at 3.73.

TRKLSPGKKRCKDIKRLLVNFMYL: the protein stability index (parent: IOH27102_46, c terminus: a fixed tail appended) is 2.32.

Regarding LLIPKEDGVITASEDRTIRVWLKR, the protein stability index (parent: IOH27506_6, c terminus: a fixed tail appended) stood at 2.04.

Turning to LNAELEEKMMQEAEKLKAQGEYSR [CCDC89 WT], where the note is “parent: IOH27358_17, c terminus: a fixed tail appended”, the protein stability index stood at 4.98.

For IYKKYALQSAAGKDAAKQIAWIKD, under “parent: IOH27247_70, c terminus: a fixed tail appended”, the protein stability index is 2.16.

With TVHEVDIFRCFCPVFLHSQMLWEL [FAM116A WT], the protein stability index (parent: IOH27644_45, c terminus: a fixed tail appended) was 3.

On to TSECPSDKDKSPESHKAKNESWIK, for which the protein stability index (parent: IOH27431_3, c terminus: a fixed tail appended) stood at 3.1.

Take FQRAMHDYNQAEMKQRDNCKIRIQ [STX11 WT]: the protein stability index (parent: IOH27407_24, c terminus: a fixed tail appended) stood at 2.68.

Consider MLWVQRKRRRKETSECPSDKDKSP, for which, for the setting “parent: IOH27431_1, c terminus: a fixed tail appended”, the protein stability index amounted to 2.93.

PPEPLSQVSMWDQRWQDHQPLLPI: the protein stability index (parent: IOH27581_25, c terminus: a fixed tail appended) is 3.15.

As for KQTIGNSCKACGYRGMLDTHHKLC [EIF5 WT], the protein stability index (parent: IOH27132_20, c terminus: a fixed tail appended) came to 3.1.

With QEKLQVLMAEGLLPAVKVFLDWLR, where the note is “parent: IOH27102_108, c terminus: a fixed tail appended”, the protein stability index was found to be 2.44.

With ITYPPGVKEISDKISKEEMVRRLK, the protein stability index (parent: IOH27247_3, c terminus: a fixed tail appended) came to 3.62.

With ADPVLDLPLPPPPPEPLSQVSMWD, the protein stability index (parent: IOH27581_23, c terminus: a fixed tail appended) was found to be 4.59.

On to SAIYKWITDNFCYFRHADPTWQNS [FOXJ1 WT], for which the protein stability index (parent: IOH27374_25, c terminus: a fixed tail appended) worked out at 2.69.

In the case of RPRRYVQPPEMIGPMRPEQFSDEV, the protein stability index (parent: IOH27258_3, c terminus: a fixed tail appended) was 3.67.

For the protein SQVSMWDQRWQDHQPLLPITDVP, under “parent: IOH27581_27, c terminus: native”, the protein stability index came to 2.45.

With QPPEMIGPMRPEQFSDEVEPATPE, the protein stability index (parent: IOH27258_4, c terminus: a fixed tail appended) turned out to be 5.04.

In the case of LPLPPPPPEPLSQVSMWDQRWQDH, where the note is “parent: IOH27581_24, c terminus: a fixed tail appended”, the protein stability index stood at 3.74.

As for TNPDLIIVCAQSSQSLWNRLSVLL, the protein stability index (parent: IOH27102_112, c terminus: a fixed tail appended) is 2.77.

In the case of TFGDHHKDRRFAYGRSDVVVLCFS [RHOBTB1 WT], the protein stability index (parent: IOH27118_15, c terminus: a fixed tail appended) was found to be 1.99.
